Test results: the nanobody polyreactivity screen of Harvey et al. (2022)

Assay: yeast display, Sf9 membrane polyspecificity reagent, FACS + sequencing; frameworks hold sequencing errors
In short: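 Sorting gates, low and high (top ~1%), were placed on anti-HA fluorescence to track expression and on streptavidin fluorescence to track reagent binding. A clone's polyreactivity label is taken from the gate it came out of. The reagent was 10% biotinylated, detergent-solubilized Sf9 membrane, applied for 1 hour at 4 °C to galactose-induced yeast display cells.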

Row | Sequence | polyreactivity (PSR sort gate)
1 | QVQLVESGGGLVQAGGSLRLSCAASGSILLYYAMGGSRPAPGKERQLVAAITCSGGSTYYADSVKGRFTISRDNAKNTDYLQMNSQKPEDTAVYYCNAVTDRAGSDYDSWGQGTQVTVSS | low polyreactivity
2 | QVQLEESGGGLVQAGGSLRLSCAASGLIFVDNAMGGSRQATGKERALVASIDSGGSTNYADSVKGRFTISRDNAKNTFYLQMNSLKPEDTAVYYCSADWIYAPWYYQESVEYYYWGQGTQVTVSS | low polyreactivity
3 | QVQLVESGVGLVQARGSLRLSCASSGSIFLVYAMGWYRQAPGKESELVAAISRSGRTYADSVKGRFTISRDNAKNTVYLQMNSLKPVDTAVYYCAAVTKRRFEGDYWGQGTQVTVSS | high polyreactivity
4 | QVQLVESGGGLVQAGGSLRLSCAASGITFLKNAMGWYRQAPGKESELVAAISSSGGSTYYADSVKGRFTISRDNAKNTVYLQMNSLKPEDTAVYYCAARIYWYTPGRRGYTYDYWGQGTQVTVSS | high polyreactivity
5 | QVQLVESGGGLVQAGGSLRLSCAASGRIIKVYAMAWYRQAPGKDRELVAAISSRGGSTYYADSVKGRFTISRDNAKNTVYLQMNSVKPEDTAVYYCAALVTWLHPKGDYWGQGTQVTVSS | low polyreactivity
6 | QVQLVESGGGLVQAGGSLRLSCAASGLIFYYYTMGWYRQAPGKERELVAAITNGGRTNYADSVKGRFTISRDNAKNTVYLQMNSLKPEDTAVYYCNAVVHKYQRGPYYIKYDYWGQGTQVTVSS | high polyreactivity
7 | QVQLVESGGGLVQAGGSLRLSCAASGNTFNNNAMGWYRQAPGKERELVAAISGSGGSTYYADSVKGRFTISRDNAKNTVYLQMNSLKPEDTAVYYCAVRLVHGGKRYGYWGQGTQVTVSS | high polyreactivity
8 | QVQLVESGGGLVQAGGSLRLSCAASGRTFRYYAMGWYRQAPGKERELVAAISVRTGSTSYADSVKGRFTISRDNAKNTVYLQMNSLKPEDTAVYYCNAPQPGKGRTRTRYYYWGQGTQVTVSS | high polyreactivity
9 | QVQLVESGGGLVQAGGSLRLSCAASGFIFVNYAMGWYRQAPGKERELVAAISRNGGRTYYADSVKGRFTISRDNAKNTVYCQMNSLTPEDTAVYYCTAELSGKRDYWGQGTQVTVSS | high polyreactivity
10 | QVQLVESGGGFVQAGGSLRLSCAASGRTFRKYAMGWYRQAPGKERELVAAITSSGGSTYYADSVKGRFTISRDNAKNTVYLQMNSLKPEDTAVYYCAAGRHSEDNYWGQGTQVTVSS | high polyreactivity
11 | QVQLVESGGGLVQAGGSLRLSCAASGSIFYTNAMGWYRQAPGKERELVASITGGGSTKYADSVKGRFTISRDNAKNTVYLQMNSLKPEDTAVYYCAKRRYWPLDWGQGTQVTVSS | high polyreactivity
12 | QVQLVESGGGLVQAGGSLRLICAASGSIFAGNAMGWYRQAPGKERELVAAITWSGGSTYYADSVKGRFTISRDNAKNTVYLQMNSLKPEDTAVYYCAAPTQADVVGYDYWGQGTQVTVSS | low polyreactivity
13 | QVQLVESGGGLVQAGGSLRLSCAASGSTFNIYAMGWYRQAPGKERELVAAITWSTGRTYYADSVKGRFTISRDTAKNTVYLQMNSLKPEDTAVYYCAARSKIRAFGYWGLGTQVTVSS | high polyreactivity
14 | QVQLVESGGGLVQAGGSLRLSCAASGFIFSGYAMGWYRQAPGKERELVAAITWSGSNTFYADSVKGRFTISRDNPKNTVYLQMNSLKPEDTAVYYCNGVSKYIRSDYYYWGQGTQVTVSS | high polyreactivity
15 | QVQLVESGGGLVQAGGSLRLSCADSGSTFYRYGMASSRHAPGKERELVAAISWRGGITYYADSVKGRFTISRENAMHTVYLQRNSLKPQDSAVYYCAADGPYTGDGALDYWGQGTQVTVSS | high polyreactivity
16 | QVQLVESGGGIVQAGGSLRLSCAASGIIFGYYAMGWYRQAPGKERELVAAISRRGGSTYYADSVKGRFTISRDNATITVYLQMHSLKPEDSAVSYCAAVELRLSTPDMESWVQGTQVTVSS | high polyreactivity
17 | QVQLVESGGGLVQAGGSLLLSCAASGRTFYVYAMGWYRQAPGKERELVAAITSGGRTYYADSVKGRFTISRDNAKNTVYLQMNRLKPEDTAVYYCNARRTSRSYSFNYWGQGTQVTVSS | high polyreactivity
18 | QFQLVESGGGLVQAGGSLRLSCAASGFILWTYAMGWYRQAPGKERELVAAISTTGGSTYYADSVKGRFTISRDNAKNTVYCQMNSLKPEDTAVYYCAAQVGRGYEVYPVYKYGYWGQGTQVTVSS | high polyreactivity
19 | QVQLVESGGGLVQAGGSLRLSCAASGLIFSYYAMGWYRQAPGKERELVAAITGSGGTTYYADSVMGRFTISRDNANNTVYLQMNSLKPEDTAVYYCATPPPEVWQRWYREYDYWGQGTQVTVSS | low polyreactivity
20 | QVQLVESGGGLVQAGGSLRLSCAASGMIFGYYVMGWYRQAPGKERELVAAINSGGNTNYADSVKGRFTISRDNAKNTVYLQMNSLKPEDTAVYYCNRSYDSTDIREDYWGQGTQVTVSS | low polyreactivity
21 | QVQHVESGGGLVQAGGSLRLSCAASGFTFLKNAMGWYRQAPGKERELVAAITSSGGRTYYADSVKGRFTISRDNAKNTVYCQMISLKPEDTAVYYCNKGPLPGYDYWGQGTQVTVSS | high polyreactivity
22 | QVQLVESGGGLVQAGGSLRLSCAASGSTFWKYAMGWYRQAPGKERELVAAINTSGGRTYYADSVKGRCTISRDNAKNTVYLQMNSLKPEDTAVYYCNARQGITYKDGRSIKYDYWGQGTQVTGSS | high polyreactivity

Row | Sequence | polyreactivity (PSR sort gate)
23 | QFQLVESGGGLVQAGGSLRLSCAASGFIFKPYTMGWYRQAPGKERELVATITFSGGSTYYADSVKGRFTISLDNAQNTVYLQMNSLNPEDTAVYYCADPRYYRGYSIFDYLGQGTQVTVSS | low polyreactivity
24 | QVQLVESGGGLVQAGGSLRLSCAASGSTFHYYAMGWYRQAPGKERELVATITSSGCSTYYADSVKGRFTISRDNAKNTVYLQMNSLKPEDTAVYYCNKKSYYRDYGRYDYWGQGSQVTVSS | low polyreactivity
25 | QVKLVESGGGLVQAGGSLRLSCGASGSTFGAYAMGWYRQAPGKERELVAVINSDGSTNYADSVKGRFTISRDNAKNTVYLQMNSMKPEDTAVYYCAKERTSRGGVPRMNYWGQGTQVTVSS | low polyreactivity
26 | QVQLEESGGGLVHAGGSLRLSCAASGFTFYSYAMGWYRQAPGKERELVAAITQSGGSTYYADSVKGRFTISRDNAKNTVYFQMNSLKPEDTAVYYCAAGRRSSWRYYLWYDYWGQGTQVTVSS | low polyreactivity
27 | QVQLVESGGGLVQAGGSLRLSCAASASIISYYAKGWYRQAPGKERELVAAISGSGSRTYYADSVKGRFTISRDNAKNTVYLQMNSLKPEDTAVYYCAARSLYRGFGYWGQGTQVTVSS | high polyreactivity
28 | QVQLVESGGGLVQAGGSLRLSCAASGSTFSRYAMGWYRQAPGKERELVAAISWGGNTYYADSVKGRFTISRDNAKNTVYFQMNSLKPEDTALYYCATEVRYQGWRDYWGQVTQVTVSS | high polyreactivity
29 | QVQLVESGGGLVQAGGSHRLSCAASGSIFSWYAMGWYRQAPGKVRELVAAITWTRGSTYYADSVKGRFTISRDTANNTVYLQMKSLKPDDSAVYYCAARRVVYRYYWYSAYVYWGQGTQVTVSS | high polyreactivity
30 | QVQLVESGGGLVQAGGSLRLSCAASGSIFVANAMGWYRQAPGKERELVAAISVRGGRTYYADSVKGRFTISRDNAKNTVYLQMNSLKPEDTAVYYCARVLRSDVADYDYWGQGTQVTVSS | high polyreactivity
31 | QVQLVESGGGLVQAGGRLRLSCAASGRIFTYNAMGWYRQAPGKEREFVAAISSGGSTTYADSVKGRFTISRDNAKNTVYLQMNSLKPEDTAVYYCAAGGCRFAIIEYEYWGQGTQVTVSS | low polyreactivity
32 | QVQLVESGGGLVQAGGSLRLSGAASGFISFPYAMGWDTQATGKERELVASITRSGGNTYYADSVKGRFTISRDNEKNTVYLQMNSLKPEDTAVYYCNAQIYTYRSGRGYSRMDYWGEGTQVTVSS | high polyreactivity
33 | QVQLVESGGGLVQAGGSLRLSCAASGSIFIVNAMGWYRQAPGKERELVAAITWSGGNTYYADSVKGRFTISRDNAKNTVYLQMNSLKPEDTAVYYCNSYWRGAFDYWGQGTQVTVSS | high polyreactivity
34 | QVQLVESGGGLVQAGGSLRLSCAASGRIFVYYAMGWYRQAPGKERELVAAMNAGGSTNYADSVKGRFTISRDNAKNNVYLQMYSLKPEDTAVYYCAAVRRSRYSYRGYYWGQGTQVTVSS | high polyreactivity
35 | QVQLVESGGGLVQAGGSLRLSCAASGYISFGYAMGWYRQAPGKEREFVAAISVGGGTTYYADSVKGRFTISRDNAKNTVYLQMNSLKPEDTAVYYCAVGKYNYRGSWDYYWGQGTQVTVSS | high polyreactivity
36 | QVQLVESGGGLVQAGGSLRLSCAASGFTFGGYAMGWYRQAPGKERELVAAISGRGGRTYYADSVKGRFTISRDNAKNTVYLQMNSLKPEDTAVYYCAAPTNHWTLLSGDYWGQGTQVTVSS | high polyreactivity
37 | QVQLVESGGGLVHAGGSLRLSCAASGGNFGKYAMGGYRQAPGKERELVAAITWNGGRTYYADSVKGRFTLSRDNAKNTVYLQMNSLKPEDSAVNYCNARNSHRYVYWGQGTQVTVSS | high polyreactivity
38 | QVQLVESGGGLVQAGGSLRLSCAASGIFDPNAMGWYRQAPGKERELVAAITSGGSTNYADSVKGRFTISRDNAKNTVYLQMNSLKPEDTAVYYCNADSYDEIKYGYWGQGTQVTVSS | low polyreactivity
39 | QVQLVESGGGLVQAGGSLRLSCAASGSTFGPNAMGWYRQAPGKERELVATISSGGSTYYADSVKGRFTISRDNAKNTVYLQMNSLKPEDTAVYYCNVLWLRSRRKYDYWGHGTQVTVSS | low polyreactivity
40 | QVQLEESGGGLVQAGGSLRLSCAASGFTFAYYAMGWYSQAPGKERELVAAISRSGGRTNYADSVKGRFTISRDNAKNTVYLQMNSLKPEETAVYYCNKQQTPRYWWSPYGGYDYWGQGTQGTVSS | high polyreactivity
41 | QVQLVESGGGLVQAGGSLRLSCAASGFIFYYYAMGWYRQAPGKERELVAAITQGGGSTYYADSVKGRFTISRDNAKNTVFLQMNSLKPEDTAVYYCAAVKRVYAHSRAFSSDFYYWGQGTQVTVSS | high polyreactivity
42 | QVQLVESGGCLVQAGGSLRLSCAASGFTFGRYAMGWYRQAPGKEREFVAAISYTGTSTYYADSVKGRFTISRDNAKNTVYLQMNSLKPEDTAVYYCNAVHPGTVAYDSWGQGTQVTVSS | high polyreactivity
43 | QVQLVESGGGLVQAGGSLRLSCAASGSIFEVNAMGWYTQAPGKERELVATITYSGGSTYYADSVKGRFTISRDNAKNTVYLQMNSLKPEDTAVYYCATDYVDWELYIYDYWGQGTQVTVSS | low polyreactivity
